In test [1] the target is ErbB4 receptor (rat (endogenous in rat brain membranes and cultured rat hippocampal neurons)).
The target is the same in test [2]. The experiment in a line: co-IP; ErbB4 immunoprecipitated with mAB10 from lysates (PBS + 1% TX-100) of cultured rat hippocampal neurons (>DIV 28), unstimulated or 10 nM NRG2 for 10 min; western blot, densitometric ratio of glutamate receptor subunit over ErbB4. (In general: Immunoblotting shows a protein as a band on a membrane.)

ErbB4 receptor (rat (endogenous in rat brain membranes and cultured rat hippocampal neurons)), sequence (Q62956 26-1308): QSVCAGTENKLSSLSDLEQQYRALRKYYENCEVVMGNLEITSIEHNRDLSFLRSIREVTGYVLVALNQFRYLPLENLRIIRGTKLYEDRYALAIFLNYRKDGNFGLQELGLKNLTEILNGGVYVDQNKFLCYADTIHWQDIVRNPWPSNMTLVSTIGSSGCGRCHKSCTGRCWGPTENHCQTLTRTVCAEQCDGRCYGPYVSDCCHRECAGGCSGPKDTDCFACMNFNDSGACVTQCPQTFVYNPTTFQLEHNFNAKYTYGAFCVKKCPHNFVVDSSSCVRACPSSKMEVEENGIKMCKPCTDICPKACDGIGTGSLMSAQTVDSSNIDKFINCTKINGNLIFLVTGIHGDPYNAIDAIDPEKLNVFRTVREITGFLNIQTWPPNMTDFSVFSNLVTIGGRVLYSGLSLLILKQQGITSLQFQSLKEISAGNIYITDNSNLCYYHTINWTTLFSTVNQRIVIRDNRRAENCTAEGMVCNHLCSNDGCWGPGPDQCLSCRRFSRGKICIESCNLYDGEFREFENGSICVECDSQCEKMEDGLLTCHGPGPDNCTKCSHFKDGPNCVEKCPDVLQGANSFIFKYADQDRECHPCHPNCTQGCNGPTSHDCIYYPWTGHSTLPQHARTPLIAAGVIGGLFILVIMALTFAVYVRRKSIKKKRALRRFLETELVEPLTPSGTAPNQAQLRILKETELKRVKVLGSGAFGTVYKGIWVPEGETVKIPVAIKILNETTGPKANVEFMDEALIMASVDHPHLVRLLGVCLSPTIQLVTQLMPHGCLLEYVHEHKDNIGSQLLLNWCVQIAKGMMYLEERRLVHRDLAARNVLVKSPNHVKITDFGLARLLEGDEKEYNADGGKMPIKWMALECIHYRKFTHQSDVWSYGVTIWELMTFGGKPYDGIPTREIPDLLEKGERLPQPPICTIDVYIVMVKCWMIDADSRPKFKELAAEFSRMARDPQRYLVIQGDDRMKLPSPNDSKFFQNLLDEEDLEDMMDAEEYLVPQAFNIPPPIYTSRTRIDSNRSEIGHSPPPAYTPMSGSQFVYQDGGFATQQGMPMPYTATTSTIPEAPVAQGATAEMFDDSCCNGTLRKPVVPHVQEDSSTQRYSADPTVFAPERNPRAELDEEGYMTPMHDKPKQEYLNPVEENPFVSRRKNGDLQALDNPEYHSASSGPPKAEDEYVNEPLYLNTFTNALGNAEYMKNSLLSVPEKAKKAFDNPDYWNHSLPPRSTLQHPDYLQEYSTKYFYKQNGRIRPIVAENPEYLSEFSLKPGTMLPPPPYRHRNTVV

As to “recombinant NRG2-ECD (neuregulin 2 extracellular domain) (ligand)”, in test [1], the whole-cell NMDA-evoked currents (100 μM NMDA, +40 mV) in ErbB4+ cultured hippocampal interneurons after 10 min of 10 nM NRG2, relative to baseline; ErbB4-negative neurons not affected (% of baseline) turned out to be 43. Regarding “GluN2B subunit of the NMDA receptor (from UniProt Q00960 27-1482)”, in test [2], the co-immunoprecipitation after NRG2, % of unstimulated controls (% of controls) worked out at 198.

The values are drawn from article PMC4451617.
